The source of these data is patent publication US20200247855A1, “THERAPY AND DIAGNOSTICS” (OXFORD UNIVERSITY INNOVATION LIMITED, priority 2017, published 2020).

Residue numbers refer to the chain shown, from its start. Names may count otherwise. “Also recorded” adds a separate entry of the source.

For one experiment, the target named is T1, CCL8_HUMAN (Homo sapiens, UniProt P80075).
T1 sequence (P80075 24-99): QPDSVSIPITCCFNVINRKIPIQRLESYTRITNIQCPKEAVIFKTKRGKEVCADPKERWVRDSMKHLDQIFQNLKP
The experiment in a line: Biolayer interferometry (BLI) binding. To be noted: for CCL8 binding (bound or not): 300 nM or 600 nM CCL8. Here is the method:
(§1) Table 1. Tick CKBPs described in PCT/GB2017/050563 and [17]. Tick peptide sequences isolated in yeast surface display fluorescent-activated cell sorting (FACS) screens using a labelled chemokine. Identity with Evasin-1, 4 or 3 was calculated using BLAST. Abbreviations: IXORI—Ixodes ricinus, RHISA—Rhipicephalus sanguineus, AMBMA—Amblyomma maculatum, AMBPA—Amblyomma parvum, AMBTR—Amblyomma triste, AMBAM—Amblyomma americanum, AMBCA—Amblyomma cajennense, RHIPU—Rhipicephalus pulchellus. Table 2A-C. Binding characteristics of tick CKBPs previously disclosed (PCT/GB2017/050563 and [17]). All members of the human chemokine family[164] are listed in column 1. Binding to human chemokines was determined for 14 tick CKBPs using biolayer interferometry (BLI) with calculated Kd shown as Molar (Moles/Litre). Binding data for 17 other novel tick CKBPs was assayed using yeast surface display[17,166],with positive binding results shown as “YES”. For biolayer interferometry, His-tagged purified tick CKBP was bound to a Ni-NINTA sensor on an OctetRed® 384 system, and then binding to each chemokine listed (with the exception of CCL25, CCL26, CXCL16, CXCL17, CXCL4L1, XCL2) was assayed in a cross-binding screen at a chemokine concentration of 300 nM as described. For those chemokines showing binding to a tick CKBP in the cross-binding screen, binding assays were repeated using different doses of chemokine. Association, equilibrium and dissociation data were analysed using Octet software to create corresponding fitted curves, and used to calculate Kd. For yeast surface display, (YSD) background fluorescence was controlled for by using either an empty vector or by omitting the chemokine (i.e. using streptavidin-Alexa647 alone). An arbitrary threshold of >3 fold over background mean fluorescence intensity was chosen to describe confirmed re-tests. Where binding was detected data are indicated as “YES”. […] For yeast surface display data, empty cells represent chemokines that were not tested. Binding data published in relation to previously described tick CKBPs (Evasins-1, 4 and 3) is also shown for comparison in each of FIGS. 2A-C, with the relevant data obtained from publications: [20-22,32]. Table 3: Neutralisation of human chemokines by tick CKBPs previously disclosed (PCT/GB2017/050563 and [17]). Neutralising activity was determined using a quantitative THP1 cell migration assay in a 96-well Boyden chamber with chemokine in the bottom chamber as described. Cells migrating through to the bottom chamber at 4 hours were counted using flow cytometry in a 96 well plate format. IC50 for neutralisation was determined at the chemokine EC80 dose as determined using a range of tick CKBP concentrations. Data was analysed using GraphPad Prism to determine IC50, which is shown as Molar (Moles/Litre). Empty cells represent experiments not done. Table 4—Other previously described tick CKBPs. Tick CKBPs that were also described in PCT/GB2017/050563 and Singh et al. are indicated in “Notes”. Table 5.—Novel tick CKBPs of the invention. Table 6. […] The peptide sequence prefix indicates the identity, and suffix indicate the tick species as follows: AMBCA, Amblyomma cajennense and IXORI, Ixodes ricinus. […] Certain tick peptides e.g. P1074_IXORI were recovered from screens performed with more than one chemokine. Individual yeast clones recovered from the library were re-tested using a FACS (fluorescence activated cell sorting), experiment. The binding of the peptide to the chemokine was assayed by measuring the percent (%), of yeast cells expressing the given peptide that exceeded a background threshold set by measuring the fluorescence of the yeast library pool treated with streptavidin-[…] alone. When more than one independent yeast clone was isolated for a given peptide-chemokine combination, the mean percent shift was calculated and reported in column 3. […]

The next experiment deals with chemokines. To be noted: list of chemokines bound, from the literature [18,20-22]; cited from earlier work.
The target in the next experiment is CCL7_HUMAN (Homo sapiens, UniProt P80098). The experiment can be described thus: Biolayer interferometry (BLI) binding. Here is the method:
as §1

The next experiment concerns the target CCL11_HUMAN (Homo sapiens, UniProt P51671). The experiment can be described thus: Biolayer interferometry (BLI) binding. Here is the method: as §1
Another experiment has as its target T2, CCL4L1_HUMAN (Homo sapiens, UniProt Q8NHW4).
T2 sequence (Q8NHW4 24-92): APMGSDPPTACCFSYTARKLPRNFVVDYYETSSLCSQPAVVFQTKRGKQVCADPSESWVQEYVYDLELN
The experiment in a line: Biolayer interferometry (BLI) binding. The protocol:
as §1

The next experiment has as its target CCL13_HUMAN (Homo sapiens, UniProt Q99616). The experiment in a line: Biolayer interferometry (BLI) binding. Here is the method: as §1
The next experiment has as its target T3, CCL4_HUMAN (Homo sapiens, UniProt P13236).
T3 sequence (P13236 24-92): T2 sequence (Q8NHW4 24-92) with G47S
The experiment in a line: Biolayer interferometry (BLI) binding. The protocol:
as §1

In the next experiment the target is CCL2_HUMAN (Homo sapiens, UniProt P13500). The experiment in a line: Biolayer interferometry (BLI) binding. Here is the method: as §1
Sequence of CCL2_HUMAN (P13500 24-99): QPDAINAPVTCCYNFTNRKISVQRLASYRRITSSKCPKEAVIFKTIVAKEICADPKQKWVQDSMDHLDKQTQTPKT

Sequence of CCL7_HUMAN (P80098 24-99): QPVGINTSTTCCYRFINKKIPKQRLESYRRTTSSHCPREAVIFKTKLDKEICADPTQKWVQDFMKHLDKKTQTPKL
Sequence of CCL13_HUMAN (Q99616 17-98): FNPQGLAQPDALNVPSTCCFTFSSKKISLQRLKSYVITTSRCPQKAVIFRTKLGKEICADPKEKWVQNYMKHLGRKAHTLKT
Sequence of CCL11_HUMAN (P51671 24-97): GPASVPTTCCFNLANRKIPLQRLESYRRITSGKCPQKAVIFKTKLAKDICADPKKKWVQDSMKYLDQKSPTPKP

B1: SEQ ID NO: 82: substituted hybrid with greater extent of P672_RHIPU sequence in Evasin-1 (protein)
chain: VCEVSEQEGVGEDNATEDEDYEDFFKPVTCYFANSTVGPLRPPNCTVVCTNNTAWWNDTKSDGGHCYSEYRPEKRTHSREIYNCTIGVCGNGDCIPKETYEVCYRRNWRDEKN
modifications: tick CKBP sequence
Turning to B1, in the experiment with CCL8_HUMAN, the “CCL8 binding (bound or not)” value is recorded as “having a CCL8-binding function”.

B2: ATR-02: previously described tick CKBP, Amblyomma triste (protein)
chain: GNEVSDPPLTDEDCEYYDPSEDNITCSIRSLNTTGRPIPVGCLATCENSTRRLHNGTECLGISDQVANRMQGNVTYTCPVGLCYRGVCQRNGLGIDCWHNTPPPNSTNVTTNASTTPLPTSSRDL
modifications: Amblyomma triste
As to B2, the “Previously described chemokine binding” value in the experiment on chemokines is given as “CCL11, CCL24,; also recorded: CCL26, CCL2,; also recorded: CCL8, CCL7”.

B3: P1183_AMBTR: tick CKBP, Amblyomma triste (protein)
chain: EAPKDDFEYDGGCPFVVLDNGTHVKPAGCSHLCNGAPETLDNIECYNVTEEVAKRMTPGIPYACWLGWCSKGECKRDNRTEVCYRGSEEE
modifications: Amblyomma triste
Turning to B3, the Kd turned out to be 5.4 nM with CCL7_HUMAN; 1100 nM with CCL8_HUMAN (read-out: Kd, CCL8_HUMAN); 8.5 nM with CCL11_HUMAN; 48 nM with CCL4L1_HUMAN; 5.7 nM with CCL13_HUMAN; 78 nM with CCL4_HUMAN. Moreover, the Kd with CCL2_HUMAN came to 12 nM.

B4: ACA-02: previously described tick CKBP, Amblyomma cajennense (protein)
chain: GIEGSGNLATSHEMDDCLDDNSTCVIQTLNTTGEPRPVGCVLKCKNSTQHLANGTECLGIPELAGVRMQYNVSYTCAVGLCNAGVCERTGLWIGCWQNEPPPNSTDVTTTAPTTTTASTSSV
modifications: Amblyomma cajennense
On to B4, for which the “Previously described chemokine binding” value in the experiment on chemokines is reported as “CCL11, CCL24,; also recorded: CCL26”.

B5: EVA1(P67222-32): hybrid protein: P672 (E22-F32) region swapped into the corresponding segment of EVA1_RHISA (protein)
chain: EDDEDYEDFFKPVTCYFLVAENKTGYPTIVACKQDCNGTTETAPNGTRCFSIGDEGLRRMTANLPYDCPLGQCSNGDCIPKETYEVCYRRNWRDKKN
modifications: EVA1 containing P672 E22-E32
notes: hybrid protein: P672 (E22-F32) region swapped into the corresponding segment of EVA1_RHISA
As for B5, in the experiment with CCL8_HUMAN, the “CCL8 binding (bound or not)” value was “bound CCL8”.

B6: IHO-01: previously described tick CKBP, Ixodes holocyclus (protein, listed as Ixodes holocyclus)
chain: AFVSSSTEVEIGSTSEHNSNETDEYGYDYNADGLGCPVVGIGGLDNKTWHPNCTNECPNSTKLFLLENGTP
For B6, the “Previously described chemokine binding” value with chemokines was “CCL11, CCL24, and CCL26, CCL2, and CCL8”.

B7: Evasin-1 peptide encoded by EZ406190.1: Evasin-1 peptide variant K92E encoded by nucleotide sequence EZ406190.1 (protein)
chain: EDDEDYGDLGGCPFLVAENKTGYPTIVACKQDCNGTTETAPNGTRCFSIGDEGLRRMTANLPYDCPLGQCSNGDCIPKETYEVCYRRNWRDEKN
Take B7: the “CCL8 binding (bound or not)” value with CCL8_HUMAN was “does not bind CCL8”.

B8: AAM-01: previously described tick CKBP, Amblyomma americanum (protein, listed as Amblyomma americanum)
chain: ESEGSVSTETEVISYEDDCQDDNSTCFIQTLNTTGEPRPVGCILECENSTQRLPNGTECLGLPGLAAVKMQRNVSYTCSVGLCNGEGVCDRTGLWIGCWTNTPPPNSTNVTTKPPTTTTASPGTG
B8: the “Previously described chemokine binding” value in the experiment with chemokines was “CCL11, CCL24,; also recorded: CCL26, CCL2,; also recorded: CCL8, CCL7”.

B9: IRI-01: previously described tick CKBP, Ixodes ricinus (protein, listed as Ixodes ricinus)
chain: GPAPSAKENEKAPLCLPQESLINNRDPNGCNYQLLPYFTEDGMGGGFLAIDCSKSCPEGTHETVVDGNS
As to B9, the “Previously described chemokine binding” value with chemokines is on record as “CCL11, CCL24,; also recorded: CCL26, CCL2,; also recorded: CCL8, CCL7”.

B10: RPU-02: previously described tick CKBP, Rhipicephalus pulchellus (protein, listed as Rhipicephalus pulchellus)
chain: CEVQNTTLAEEDYDTGCGYNIVITKNKTLVVNCTMDCQPKMLMNESEPCLFNSSVPYDHMQPHHNYTCMEGICKNGTCVSPSNNITCWLPPPPVRYYPNETMVTSTIEPEA
With B10, the “Previously described chemokine binding” value in the experiment on chemokines is listed as “CCL11, CCL24,; also recorded: CCL26, CCL2,; also recorded: CCL8, CCL7”.

B11: AMA-01: previously described tick CKBP, Amblyomma maculatum (protein, listed as Amblyomma maculatum)
chain: ECEESDTSESTECSTEDYSNRIRDNETCFIGALNTTGHPVPVGCTLDCGNSTRYLPNGTECIDLTQQASDVMQSDVPYYCPIGLCANGICKRSGLELNCWHDMPPPVSTDTAIENPTTSISSSAKL
For the molecule B11, the “Previously described chemokine binding” value in the experiment with chemokines was “CCL11, CCL24,; also recorded: CCL26, CCL2,; also recorded: CCL8, CCL7”.

B12: SEQ ID NO: 83: substituted hybrid with greater extent of P672_RHIPU sequence in Evasin-1 (protein)
chain: VCEVSEQEGVGEDNATEDEDYEDFFKPVTCYFANSTVGPLRPPNCTVVCTNNTAWWNDTKSDGGHCFSIGDEGLRRMTANLPYDCPLGQCSNGDCIPKETYEVCYRRNWRDEKN
modifications: tick CKBP sequence
For B12, the “CCL8 binding (bound or not)” value in the experiment with CCL8_HUMAN was “having a CCL8-binding function”.
